Laboratory results as given in the supplement of paper PMC10724198.
± gives the standard deviation of the averaged measurements.

Legend:
Saccharomyces cerevisiae [1] = assay: protein stability index of tFT-peptide fusion in wild type (PSI (0-1 scale)); higher = more stable (slower turnover); conditions: genetic background: wild type
Description: (§1)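 MPS profiling in S. cerevisiae of two library types built from selected 12-aa C-degron peptides (IN1, IN2, LN1, LN3, VN2, R1-R5, W1-W3, Atg1 and Rpa12 C-termini): saturation mutagenesis libraries and C-terminal +1 capping libraries (13 aa). Each peptide is fused to the C-terminus of a sfGFP-mCherry timer, after a GGGS linker. Cells are FACS-sorted into 8 mCherry/sfGFP bins and sequenced. PSI runs from 0 (unstable) to 1 (stable), measured once in wild type and in the das1Δ or doa10Δ background.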

Saccharomyces cerevisiae [2] = assay: protein stability index of tFT-peptide fusion in deletion strain of DAS1 (PSI (0-1 scale)); higher = more stable (slower turnover)
Description: as §1

Saccharomyces cerevisiae [3] = assay: protein stability index of tFT-peptide fusion (C-terminal peptide) (PSI (0-1 scale)); higher = more stable (slower turnover); conditions: temperature: 30 C
Description: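 MPS profiling in S. cerevisiae of the yeast C-terminome library: the last 12 aa of each annotated ORF are fused to the C-terminus of a sfGFP-mCherry timer, after a GGGS linker. Cells are FACS-sorted into 8 mCherry/sfGFP bins and deep-sequenced. PSI runs from 0 (unstable) to 1 (stable); wild type and das1Δ backgrounds, two technical replicates each.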

[4] = genetic background: das1 deletion
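Throughout, for protein stability index of tFT-peptide fusion in deletion strain of DAS1: PSI is a weighted mean of each variant's read distribution over the sorted stability bins, computed only for variants having over 10 reads in total.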
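Throughout, for protein stability index of tFT-peptide fusion in wild type: PSI derived as read-weighted mean over the 8 sorting bins, only variants exceeding 10 total reads kept, mCherry placed adjacent to the peptide and sfGFP distal.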

| Sequence | protein stability index (Saccharomyces cerevisiae [1]) | protein stability index (Saccharomyces cerevisiae [2]) | protein stability index (Saccharomyces cerevisiae [3]; [4]) | protein stability index (Saccharomyces cerevisiae [3]; genetic background: wild type) |
| --- | --- | --- | --- | --- |
| PSLAASFWRVVGR | 0.692 | 0.691 | – | – |
| EVVYLSCVACIN | 0.0159 | 0.0291 | – | – |
| RLIQPLPVQHLN | 0.1 | 0.564 | – | – |
| KKHKKGQKQEIN | 0.591 | 0.589 | – | – |
| RLIQWLPVQFLN | 0.071 | 0.613 | – | – |
| PSLAADFWRVVG | 0.171 | 0.712 | – | – |
| FSMRDTFRYWVN | 0.0684 | 0.833 | – | – |
| CTSCNYKFRTNN | 0.407 | 0.681 | – | – |
| PDVRNHLIKLLN | 0.119 | 0.613 | – | – |
| VRGAVGGWRLFG | 0.333 | 0.694 | – | – |
| FSMWWTFRYWVN | 0.077 | 0.444 | – | – |
| ARWRVGLWVGAS | 0.468 | 0.545 | – | – |
| WTSCGYKFRTNN | 0.173 | 0.699 | – | – |
| LKILRLKMNHQN | 0.171 | 0.65 | – | – |
| LRWRVGLWRGAS | 0.0917 | 0.682 | – | – |
| FSMRWTFRYWVQ | 0.205 | 0.48 | – | – |
| CTSCGYKFITNN | 0.325 | 0.709 | – | – |
| CTSCTYKFRTNN | 0.238 | 0.648 | – | – |
| VRGAVAGWRLVG | 0.156 | 0.655 | – | – |
| VSLAASFWRVVG | 0.102 | 0.676 | – | – |
| ARWRVGLWGGAS | 0.554 | 0.674 | – | – |

| Sequence | protein stability index (Saccharomyces cerevisiae [1]) | protein stability index (Saccharomyces cerevisiae [2]) | protein stability index (Saccharomyces cerevisiae [3]; [4]) | protein stability index (Saccharomyces cerevisiae [3]; genetic background: wild type) |
| --- | --- | --- | --- | --- |
| CTVCGYKFRTNN | 0.28 | 0.704 | – | – |
| NFAMLGLGPNWE [YUH1 C-terminal 12 aa] | – | – | 0.722 ± 0.0065 | 0.725 ± 0.057 |
| ILKELSNLETLY [RPB4 C-terminal 12 aa] | – | – | 0.7182 ± 0.007 | 0.737 ± 0.051 |
| KPEEEKETLQEE [PAF1 C-terminal 12 aa] | – | – | 0.69 ± 0.046 | 0.649 ± 0.031 |
| RKFFKRMTNFWC [TAT1 C-terminal 12 aa] | – | – | 0.7409 ± 0.0066 | 0.436 ± 0.025 |
| IDEIYEDKWLKI [PSK2 C-terminal 12 aa] | – | – | 0.727 ± 0.027 | 0.74 ± 0.047 |
| ERCSLQNPFYSI [YNR066C C-terminal 12 aa] | – | – | 0.7315 ± 0.0067 | 0.696 ± 0.0016 |
| EGKEEIIYDSEG [RAD55 C-terminal 12 aa] | – | – | 0.6913 ± 0.006 | 0.677 ± 0.047 |
| HNPSLWSCIFGK [SWS2 C-terminal 12 aa] | – | – | 0.716 ± 0.02 | 0.714 ± 0.029 |
| TKRLRKNKCIIM [RHO4 C-terminal 12 aa] | – | – | 0.743 ± 0.0024 | 0.702 ± 0.024 |
| TANKVELMANIV [MAK31 C-terminal 12 aa] | – | – | 0.6683 ± 0.0035 | 0.686 ± 0.041 |
| NLEATNNKKPPL [DAD4 C-terminal 12 aa] | – | – | 0.6963 ± 0.0043 | 0.6968 ± 0.00081 |
| FPLLMSEIEDFR [YNL067W-A C-terminal 12 aa] | – | – | 0.718 ± 0.019 | 0.695 ± 0.033 |
| TDDKEKLLKTLK [ACC1 C-terminal 12 aa] | – | – | 0.698 ± 0.016 | 0.734 ± 0.023 |
| HQKARSSYCCIQ [XDJ1 C-terminal 12 aa] | – | – | 0.759 ± 0.02 | 0.706 ± 0.0085 |
| QFAQDTLKNFVQ [SAM35 C-terminal 12 aa] | – | – | 0.733 ± 0.022 | 0.713 ± 0.03 |
| LLASCIETTRNK [LOT6 C-terminal 12 aa] | – | – | 0.691 ± 0.008 | 0.667 ± 0.027 |
| SGKLASKKRDKK [MRPL36 C-terminal 12 aa] | – | – | 0.684 ± 0.021 | 0.651 ± 0.019 |
| AQNFILFHDYLH [YLR365W C-terminal 12 aa] | – | – | 0.698 ± 0.012 | 0.711 ± 0.032 |
| DEWLNLHINIVE [SHU2 C-terminal 12 aa] | – | – | 0.741 ± 0.0062 | 0.717 ± 0.014 |
| PQRTKIQAFNTL [MRP1 C-terminal 12 aa] | – | – | 0.70194 ± 0.0001 | 0.675 ± 0.029 |

| Sequence | protein stability index (Saccharomyces cerevisiae [1]) | protein stability index (Saccharomyces cerevisiae [2]) | protein stability index (Saccharomyces cerevisiae [3]; [4]) | protein stability index (Saccharomyces cerevisiae [3]; genetic background: wild type) |
| --- | --- | --- | --- | --- |
| YWILKSNPTNES [YNL092W C-terminal 12 aa] | – | – | 0.742 ± 0.018 | 0.7246 ± 0.0071 |
| GALLAGAAALLL [CCW12 C-terminal 12 aa] | – | – | 0.7007 ± 0.0036 | 0.698 ± 0.019 |
| VEIPTVESTKSG [RNA14 C-terminal 12 aa] | – | – | 0.696 ± 0.021 | 0.7544 ± 0.0014 |
| KQSVQQQKTGNY [YHL009W-A C-terminal 12 aa] | – | – | 0.699 ± 0.018 | 0.663 ± 0.00095 |
| RQEEIKKRTALV [DPC25 C-terminal 12 aa] | – | – | 0.705 ± 0.0089 | 0.619 ± 0.022 |
| EYEYEDDGLFER [GCD1 C-terminal 12 aa] | – | – | 0.695 ± 0.017 | 0.692 ± 0.029 |
| EFEENPNPTVEN [HSP42 C-terminal 12 aa] | – | – | 0.731 ± 0.033 | 0.702 ± 0.054 |
| TPTDSTPTKKDI [LAC1 C-terminal 12 aa] | – | – | 0.6941 ± 0.0027 | 0.725 ± 0.019 |
| NASIFTVLSYCS [YEL020C-B C-terminal 12 aa] | – | – | 0.6702 ± 0.0016 | 0.668 ± 0.02 |
| RMLMGTTKRGRF [YAL037W C-terminal 12 aa] | – | – | 0.704 ± 0.02 | 0.6898 ± 0.0036 |
| KQREKYAAVASK [SOP4 C-terminal 12 aa] | – | – | 0.692 ± 0.022 | 0.698 ± 0.043 |
| LLRKLSMKRPFS [APL1 C-terminal 12 aa] | – | – | 0.683 ± 0.016 | 0.682 ± 0.047 |
| AADRDNKKDEST [XRN1 C-terminal 12 aa] | – | – | 0.6981 ± 0.0034 | 0.668 ± 0.057 |
| IGRENENENEDD [POP5 C-terminal 12 aa] | – | – | 0.688 ± 0.037 | 0.704 ± 0.058 |
| INKKKSGSGCIC [YPT10 C-terminal 12 aa] | – | – | 0.696 ± 0.035 | 0.647 ± 0.026 |
| EDWSVEELIVDL [RPO26 C-terminal 12 aa] | – | – | 0.681 ± 0.009 | 0.71 ± 0.022 |
| EEEKRRRKKGIR [SPT2 C-terminal 12 aa] | – | – | 0.706 ± 0.022 | 0.662 ± 0.0095 |
| KEDKKKKSSNCC [YPT32 C-terminal 12 aa] | – | – | 0.704 ± 0.0073 | 0.732 ± 0.014 |
| QSLPPTLKVNRL [RPL38 C-terminal 12 aa] | – | – | 0.672 ± 0.012 | 0.65859 ± 0.00042 |
| LDLQNQNKKNLW [PIN4 C-terminal 12 aa] | – | – | 0.707 ± 0.02 | 0.707 ± 0.023 |
| FKQSEITLYRTR [PEP8 C-terminal 12 aa] | – | – | 0.693 ± 0.032 | 0.722 ± 0.11 |

| Sequence | protein stability index (Saccharomyces cerevisiae [1]) | protein stability index (Saccharomyces cerevisiae [2]) | protein stability index (Saccharomyces cerevisiae [3]; [4]) | protein stability index (Saccharomyces cerevisiae [3]; genetic background: wild type) |
| --- | --- | --- | --- | --- |
| PSIQHDYTMEGW [ATG3 C-terminal 12 aa] | – | – | 0.72275 ± 0.00032 | 0.6562 ± 0.0032 |
| ITLRLWEQRQAK [MAD1 C-terminal 12 aa] | – | – | 0.754 ± 0.019 | 0.726 ± 0.0076 |
| KNRRRNTKKIAF [RLP24 C-terminal 12 aa] | – | – | 0.705 ± 0.03 | 0.6678 ± 0.0055 |
| IYIYTSTLQLCV [YHR028W-A C-terminal 12 aa] | – | – | 0.376 ± 0.024 | 0.362 ± 0.011 |
| SLLFVGPLFLKV [YCL007C C-terminal 12 aa] | – | – | 0.401 ± 0.016 | 0.423 ± 0.012 |
| FFRYFTFSSSYW [YDR464C-A C-terminal 12 aa] | – | – | 0.7002 ± 0.004 | 0.661 ± 0.022 |
| INKRAVSNSKDV [RFT1 C-terminal 12 aa] | – | – | 0.692 ± 0.026 | 0.727 ± 0.027 |
| GAGIMALIGKWA [ZRT1 C-terminal 12 aa] | – | – | 0.687 ± 0.017 | 0.661 ± 0.022 |
| HGGNVSSSTYQA [GND1 C-terminal 12 aa] | – | – | 0.685 ± 0.013 | 0.696 ± 0.029 |
| RVRTLARKHLSK [TRS20 C-terminal 12 aa] | – | – | 0.692 ± 0.02 | 0.686 ± 0.018 |
| AYEPFSFRAIIE [STV1 C-terminal 12 aa] | – | – | 0.686 ± 0.008 | 0.723 ± 0.035 |
| IKLARRLRGERS [YBR010W; YNL031C C-terminal 12 aa] | – | – | 0.6941 ± 0.0047 | 0.68 ± 0.012 |
| KFEKKLYNFLGF [GEP4 C-terminal 12 aa] | – | – | 0.701 ± 0.028 | 0.717 ± 0.017 |
| VMSLYNLACKYI [SAM37 C-terminal 12 aa] | – | – | 0.797 ± 0.013 | 0.577 ± 0.056 |
| LTSIWKTILFFK [YEL076C C-terminal 12 aa] | – | – | 0.41 ± 0.014 | 0.468 ± 0.061 |
| VYVENPIRLFHH [ADE16 C-terminal 12 aa] | – | – | 0.712 ± 0.0083 | 0.7235 ± 0.0019 |
| FVLIVLGLLTYL [GET2 C-terminal 12 aa] | – | – | 0.364 ± 0.0094 | 0.38 ± 0.019 |
| SIVYSWKENSSS [YGL217C C-terminal 12 aa] | – | – | 0.704 ± 0.031 | 0.703 ± 0.015 |
| SWISNNTNVPKK [ARF3 C-terminal 12 aa] | – | – | 0.6958 ± 0.0013 | 0.678 ± 0.011 |
| MNNLFNPHSHDS [GTA1 C-terminal 12 aa] | – | – | 0.7104 ± 0.0014 | 0.722 ± 0.042 |
| IIGALNLYDGLI [FRQ1 C-terminal 12 aa] | – | – | 0.737 ± 0.017 | 0.763 ± 0.12 |
